Here are results for four molecules from patent publication US9988424 (DUKE UNIVERSITY, dated 2018).

Where two headings read alike, the source gives them in different places.

In one experiment the target is 92TH023 gp120 (HIV-1).
Experiment [1] has as its target AE.A244 gp120 (HIV-1).
Another experiment deals with J08 A.92RW020V1V2 (HIV-1). The experiment is described as follows: ELISA.
For another experiment, the target named is T1, J08 C.97ZA012V1V2 (HIV-1).
T1 chain: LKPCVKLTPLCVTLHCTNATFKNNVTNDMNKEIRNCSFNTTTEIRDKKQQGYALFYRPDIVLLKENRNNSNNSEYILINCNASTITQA
Briefly: ELISA.

The target of the next experiment is J08 C.ZM109.V1V2 (HIV-1). Briefly: ELISA.
A further experiment has as its target J08 C.ZM109V1V2 N173D (HIV-1). The experiment is described as follows: ELISA.
Another experiment addresses gp70 A.92RW020V1V2 (murine leukemia virus; HIV-1). The experiment is described as follows: ELISA.
Another experiment deals with B.63521_V1V2 Tags. The experiment is described as follows: ELISA OD405nm, bar chart, antibody concentration not given.
In experiment [2] the target is T2, AE.A244 V1/V2 tags, natively deglycosylated (HIV-1).
T2 construct: also called AE.A244V1V2 tags Degly
Briefly: ELISA.

Experiment [3] addresses T3, AE.A244 gD+ gp120 (HIV-1).
T3 construct: domain: gp120; also called AE.A244 gp120gD+
The experiment is described as follows: ELISA.

Experiment [4] addresses T4, AE.A244 gp120 (HIV-1).
T4 construct: also called AE.A244 gD-gp120; E.A244gDneg
The experiment is described as follows: ELISA.

A further experiment concerns the target T5, AE.A244 gp120D11/K169V (HIV-1).
T5 construct: also called A244 gp120 K169V; AE.A244 gp120/K169V
Briefly: ELISA.

The target of a further experiment is T6, AE.427299 gp120D11 (HIV-1).
T6 construct: also called AE.427299 gp120 WT
The experiment is described as follows: ELISA.

In the next experiment the target is T7, AE.427299 gp120D11/Q169K (HIV-1).
T7 construct: also called AE.427299 gp120 Q169K
Briefly: ELISA.

Experiment [5] has as its target T8, AE.427299 gp120/R168K/Q169K/Y173H/A174V (HIV-1).
T8 construct: also called AE.427299 gp120 Mut4
Briefly: ELISA.

Experiment [6] addresses T9, gp70 B.CaseA2 V1/V2/V169K (HIV-1 V1V2 on murine leukemia virus gp70).
T9 chain: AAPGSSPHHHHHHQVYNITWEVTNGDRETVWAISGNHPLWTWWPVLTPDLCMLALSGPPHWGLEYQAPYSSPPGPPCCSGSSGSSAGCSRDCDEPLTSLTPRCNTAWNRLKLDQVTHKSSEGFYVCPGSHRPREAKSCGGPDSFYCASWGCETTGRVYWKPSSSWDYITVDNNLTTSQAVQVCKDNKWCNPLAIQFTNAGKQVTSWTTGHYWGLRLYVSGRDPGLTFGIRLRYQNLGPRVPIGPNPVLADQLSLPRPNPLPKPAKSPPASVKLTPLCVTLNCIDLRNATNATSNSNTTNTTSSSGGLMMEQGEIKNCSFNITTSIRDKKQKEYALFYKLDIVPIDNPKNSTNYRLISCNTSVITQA
Briefly: ELISA.

Experiment [7] addresses T10, AE.703359 gp120D11/Q169K/R170Q/Q173H (HIV-1).
T10 construct: also called AE.703359 gp120 Mut3
The experiment is described as follows: ELISA.

The target in a further experiment is T11, AE.703359 gp120D11 (HIV-1).
T11 construct: also called AE; 703359 gp120 WT; AE.703357 (other spelling in the text)
Briefly: ELISA.

In experiment [8] the target is T12, AE.A244 gp120 D11/K169V/V172E/H173Y (HIV-1).
T12 construct: also called A244 gp120 Mut3
Briefly: ELISA.

A further experiment addresses T13, AE.A244 gp120 delta 11 (HIV-1).
T13 construct: also called E.A244gp120Δ11; AE.A244 Δ11 gp120
Briefly: ELISA.

The target of the next experiment is T14, AE.703359 gp120D11/Q169K (HIV-1).
T14 construct: also called AE.703359 gp120 Q169K
Briefly: ELISA.

The target in another experiment is T15, AE.A244 gD+ gp120 N160K (HIV-1).
T15 construct: domain: gp120
The experiment is described as follows: ELISA.

For experiment [9], the target named is T3, AE.A244 gD+ gp120. Briefly: ELISA. This is another data set of the same source.
The target of experiment [10] is T4, AE.A244 gp120. Briefly: ELISA. This is another data set of the same source.
Experiment [11] concerns the target T16, AE.A244 V1/V2 Tags N156QN160Q (HIV-1).
T16 chain: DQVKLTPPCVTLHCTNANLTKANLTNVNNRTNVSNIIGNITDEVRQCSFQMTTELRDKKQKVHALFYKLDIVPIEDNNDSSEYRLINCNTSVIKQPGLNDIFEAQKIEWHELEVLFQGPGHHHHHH
Briefly: ELISA.

For experiment [12], the target named is T17, gp70 B.CaseA2 V1/V2 (HIV-1 V1V2 on murine leukemia virus gp70).
T17 construct: also called B.gp70CaseA2 V1/V2; gp70 B.CaseAV1V2
T17 chain: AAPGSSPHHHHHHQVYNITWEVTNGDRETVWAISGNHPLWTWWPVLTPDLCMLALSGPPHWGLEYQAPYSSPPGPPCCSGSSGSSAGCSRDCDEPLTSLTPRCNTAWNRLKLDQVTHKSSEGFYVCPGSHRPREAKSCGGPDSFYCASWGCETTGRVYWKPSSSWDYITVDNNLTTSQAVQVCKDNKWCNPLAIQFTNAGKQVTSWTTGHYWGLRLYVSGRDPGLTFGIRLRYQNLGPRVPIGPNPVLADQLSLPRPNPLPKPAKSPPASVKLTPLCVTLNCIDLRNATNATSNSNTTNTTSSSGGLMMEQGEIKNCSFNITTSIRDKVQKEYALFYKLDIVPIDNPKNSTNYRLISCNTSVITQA
The experiment is described as follows: ELISA.

Experiment [13] concerns the target A.Q23 V1V2 tags (HIV-1). Briefly: ELISA.
The target of experiment [14] is T17, gp70 B.CaseA2 V1/V2. Briefly: ELISA.
In experiment [15] the target is A.Q23 V1V2 tags (HIV-1). The experiment is described as follows: ELISA. This is another data set of the same source.

B1: CH59 (antibody, V domains shown)
VH: EVQLVESGGGLVQPGRSLRLSCAASGFTFDDGAMHWVRQAPGKGLEWVSGISWNSNIIAYADSVKGRFTISRDNAKNSLYLEMNSLRVEDTALYYCAKDSPRGELPLNYWGQGTLVTVSS
VL: SYELTQPPSVSVSPGQTARITCSGDALPKNYAYWYQQKSGQAPVLVIYEDSKRPSGIPERFSGSSSGTMATLTISGAQVEDEADYYCYSTDSSGNHRVFGGGTKLTVL
notes: also called mAb CH59
For B1, the IC50 with 92TH023 gp120 and with AE.A244 gp120 [1] was under 10 nM throughout. Further, the EC50 with J08 A.92RW020V1V2 worked out at 377 nM; with J08 C.97ZA012V1V2, 107 nM; with J08 C.ZM109.V1V2, 1.16 nM; in the experiment with J08 C.ZM109V1V2 N173D, 22 nM; with gp70 A.92RW020V1V2 it was 235 nM; in experiment [2], 0.0015 nM. Moreover, the EC50 in the experiment with AE.A244 gD+ gp120 [3] turned out to be 0.04 nM; in the experiment with AE.A244 gp120 [4], 0.03 nM; with AE.A244 gp120D11/K169V, 0.58 µg/mL; in experiment [5] it was 0.03 µg/mL; in experiment [7] it was 0.05 µg/mL; with AE.A244 gp120 delta 11, 0.029 µg/mL. The EC50 turned out to be 1.2 µg/mL with AE.703359 gp120D11/Q169K, 0.03 nM in the experiment with AE.A244 gD+ gp120 N160K, 0.04 nM with AE.A244 gD+ gp120 [9] and 0.03 nM with AE.A244 gp120 [10]. In addition, the binding result is recorded as “no binding (tested: not given)” in the experiment with B.63521_V1V2 Tags; “no binding” with AE.427299 gp120D11; “no binding” in the experiment with AE.427299 gp120D11/Q169K; “no binding” in [6]; “no binding” in the experiment with AE.703359 gp120D11; “no binding” in experiment [8]. Further, in experiment [11], the binding result is “binds”.

B2: PG16 (antibody, V domains shown)
VH: QEQLVESGGGVVQPGGSLRLSCLASGFTFHKYGMHWVRQAPGKGLEWVALISDDGMRKYHSDSMWGRVTISRDNSKNTLYLQFSSLKVEDTAMFFCAREAGGPIWHDDVKYYDFNDGYYNYHYMDVWGKGTTVTVSS
VL: QSALTQPASVSGSPGQTITISCNGTSSDVGGFDSVSWYQQSPGKAPKVMVFDVSHRPSGISNRFSGSKSGNTASLTISGLHIEDEGDYFCSSLTDRSHRIFGGGTKVTVL
notes: also called mAb PG16; bnAb PG16
In the experiment with 92TH023 gp120, B2 returned an IC50 of 10 to 100 nM. Besides, the EC50 with AE.A244 gD+ gp120 [3] and with AE.A244 gD+ gp120 [9] was 15 nM each time. For the same molecule, the results for the binding result in experiment [6] and in experiment [11] were “no binding” and “no binding (tested: 100 ug/ml)”, respectively.

B3: 697D (antibody, V domains shown)
VH: QVQLVQSGAEVKKPGSSVKVSCKASGGNFNTYTISWVRQAPGQGLEWMGRIIPIFGIVNPAQKFPGRVTINVDKSTNTAYMELSSLRSEDTAVYYCATSGVGLHFGYFDYWGQGTQVTVSS
VL: QSVLTQPPSVSGAPGQRVTISCTGSSSNIGAHYDVHWYQQLPGTAPKLLIYGNSNRPSGVPDRFSGSKSGTSASLAITGLQAEDEADYYCQSYDSSLSGYVFGTGTKVTVL
notes: also called mAb 697D; V2 conformational mAb 697D
Take B3: the EC50 is 0.08 nM with gp70 B.CaseA2 V1/V2 [12]; over 66.7 nM with A.Q23 V1V2 tags [13]; 0.33 nM with gp70 B.CaseA2 V1/V2 [14]; over 66.7 nM with A.Q23 V1V2 tags [15]; 0.07 nM with J08 A.92RW020V1V2; 0.06 nM with J08 C.97ZA012V1V2. The EC50 in the experiment with J08 C.ZM109.V1V2 amounted to 3 nM; with J08 C.ZM109V1V2 N173D, 0.41 nM; in the experiment with gp70 A.92RW020V1V2, 14 nM; in [2] it was 3.6 nM; with AE.A244 gp120 [4] it was 0.8 nM; with AE.A244 gp120D11/K169V, 0.06 µg/mL. In addition, the EC50 with AE.427299 gp120D11 was found to be 0.07 µg/mL; with AE.427299 gp120D11/Q169K, 0.13 µg/mL; in [6], 0.14 µg/mL; in [7], 0.12 µg/mL; with AE.703359 gp120D11 it was 0.21 µg/mL; in experiment [8], 0.08 µg/mL. Moreover, the EC50 with AE.A244 gp120 delta 11 was found to be 0.1 µg/mL; with AE.703359 gp120D11/Q169K, 0.51 µg/mL; with AE.A244 gp120 [10], 0.8 nM. In addition, the IC50 with AE.A244 gp120 [1] is under 10 nM. For the same molecule, in experiment [5], the binding result is reported as “no binding”.

B4: 697D reverted unmutated ancestor antibody (antibody, V domains shown)
VH: QVQLVQSGAEVKKPGSSVKVSCKASGGTFSSYTISWVRQAPGQGLEWMGRIIPILGIANYAQKFQGRVTITADKSTSTAYMELSSLRSEDTAVYYCATSGVGLHFGYFDYWGQGTLVTVSS
VL: QSVLTQPPSVSGAPGQRVTISCTGSSSNIGAGYDVHWYQQLPGTAPKLLIYGNSNRPSGVPDRFSGSKSGTSASLAITGLQAEDEADYYCQSYDSSLSGYVFGTGTKVTVL
notes: also called 697D RUA
As for B4, the EC50 with gp70 B.CaseA2 V1/V2 [12], in the experiment with A.Q23 V1V2 tags [13], with gp70 B.CaseA2 V1/V2 [14] and with A.Q23 V1V2 tags [15] was over 667 nM each time.
